Source: the domain aggregation screens of Martell et al. (2025)

assay: soluble fraction after stress (log2 fold change); higher = more stays soluble; pooled small domains, quantitative proteomics; settings: stress: 50 degC
Outline: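 Pooled custom libraries of small protein domains were measured in a high-throughput format, with quantitative proteomics as the read-out. Each library was stressed at 50°C. Aggregation propensity is given as the base-two logarithm of the fold change in how much of each protein stays soluble after the stress. Higher values mean a larger share of the protein remains in solution.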

| Sequence | soluble fraction (log2) |
| --- | --- |
| HMLTYPEHVRLRMIELRKTRSLSQSEFGTYLGLSYQTISSLELGRHEWSLAHIQTALLRFELPPNYF | -4.92 |
| HMELQYSQEIEEAQKILENLGLYRGEIDGINGINTKSAIREFQRKSGLVVDGILGPNTTNALSKGSDAYIT | 0.094 |
| HMGADGIPGKNGENGETSYVHFAYATSADGKTGFSTTDTVGKTYMGQYADFEKADSEDPTKYRWGKFQGP | 0.102 |
| HMRAVFEQLRIGQTLAGVVKAQEKGFSLVEIDGQTVAMRLPHPAAVGDTLRLRFAGHMPQAVFLLES | -0.561 |
| HMGHASPGNREALQFALERHQARAAEFAEKAGLSIANASTKFKQLWEQGFLMRNESVADSGGVEFLYQR | -0.0221 |
| HMADEIMYPVQVNGKVRAEIFVAADQSKNKELVLEMAKSEERVQKYLEEGNLIKEIFVPGRIVNLVI | 0.0273 |
| HMKLNKRQYAYQVIRSRILDGTYVPGQRIIIDQIAKEVNSSHIPVREAIHQLESEQLIDYEPNIGAIVKG | 0.285 |
| HMAAYRLIPLGNSNKDFETYQEAIQYMRDKLDESSKAFEEGKQNWVYSGRVYGVPWSDGRTTFTVDLVPKV | 0.164 |
| HMDEAAGVLTQLRAFIAASNLSPGLRLPPERELAEQLGVTRAELRKALAVLEAEGLLWRQVGKGTFYGARP | -0.481 |
| HMIKIEDYTNKDYNKVEASLEVKGLVVNIEYKAVDDKAKYKGKEDLIIDQSVKKDATLVKGDTIILYLPK | -0.268 |
| HMGNHRNMSAEEEAAILAPFKARAEAGELVEISEIAKAYQSAVDHPISRGQIYFVLHRHGWRKV | -0.926 |
| HMIDIIEYIISEESKGLRADQGIALQNPQYSRSLIQKWIKKGSVLVNNKIIRTKEILLEGDKISITPEENI | -0.384 |
| HMTHPQVEAYLDDLARMLADIDPGERDDILASVREHLDAEIAAGHGSDAVVNATLLRLGPPEQVAAAARTN | -0.0824 |
| HMNMIGDVIRNLRTVSSMTQTELGQRMGVIKQTISNWEKNISTPSIDAIVKLSSIFNVPTDYLL | -1.06 |
| HMEDEISLGAINVPRGSVIVTAGGARLVEGSDYTVDYYSGTVKILNKSLLDAGTPINVSLET | 0.0198 |
| HMESIPDELLEAFKQDPAFKQAFYALTAGRQRGYIIHFSQPKQSQTRIGRIEKYKEQIFNGIGLN | -0.643 |
| HMPAEGWEASGDTWRYRQKDGSYITNAWVQDTDGKWYYFDESSLMVRNQTTSDGYYVGEDGVWTET | -0.395 |
| HMPIDIEPVLQWIRDNSIDGIGPARSMYHSAAAAAGLPSYSSLQLRKWTWPLLLDAAGVQRR | -0.433 |
| HMVSLLDWAYKQVRRMLFSGDLPQGQKIVVAQLANQLSISPTPVKEALNRLAVEGLLEAVPRRGFQVR | -0.229 |
| HMSPAPVSVDHLAFPTRDLEATDHFYSKVVGATLVHAESGYSPSWKSDYLLITYALPDGTRLSFFDWP | 0.0261 |
| HMQTTITITNTVTGQKAQFPPPFNPMSLSKIGVDETFEKEVFVDGVDTFGYGLDGYLTFYELKDFLRSYQ | -2.5 |
| HMSPAETGIYHILVENGKPNRHGLDATNKNENWLRQFLITQNTRLEDVFLLLADDGGGIRFFKSQ | -0.498 |
| HMDEILHHPSYRAIYEYMLDHKHVKTKDIAALLNVKEPRARQLLKEMIDKHFIIALGSNRNREYELL | -0.495 |
| HMSLTPSQDANRSAILDAARDLFARYGFKKTTMEDIAMALRKGKSSLYYYFKNKEDIFQAVIDS | -1.35 |
| HMSENLESEFFGIVVITQTLLQKELRDKPMTVELIRKTVEDVMSKHYSDSSVDKAKVEEELIRRFSTW | -0.164 |
| HMSAQQTFLRDAMRRLNMTRDSFAERIGVRRRALDTWLLPEDSSEYRTMPSIVEKFVGEILGREA | -0.453 |
| HMDSESGAIIRRAVAQLAPKFRSTIVLRLIEGYSTEETAQILQLPVGTVLSRLARAKVQLMNLLTPYKEL | -0.126 |
| HMKDANIQIGKRLREARLNMNLEKSEIADVLGVTVEHYRKLEAGVMGISVDKVLTLYHKYGIDPTYLITG | -1.19 |

| Sequence | soluble fraction (log2) |
| --- | --- |
| HMHQKELLNLSYKEAKRYILDDFERVFFTNLLRKTGGNVSRAAQLAQVHRKNLYVKLTELGIDPRQFG | -1.43 |
| HMFDNPLSERDKEILNHISMGKSNKEIANQVGLAEQTIKNTISVILDKTFTSNRAQAASMATKNKW | 0.547 |
| HMQGWREWDYSADLYINARVGGKIEPTENSPISRVYELDEPVSVVAFTSTRYFKLSSGDYIFAEYLSAQKV | -1.2 |
| HMPAMYKAERMNQILSILADQGDVDVGTLARQFGVSLVTIRKDLTYLESSGQLVRTHGGAIAVA | -0.767 |
| HMIEQIELEARVPDELGGQRLDQVAAQMFDDFSRSRLTGWIRDGSLTADGQQLRPRDIVYGGTLLQLKAEQ | 0.00374 |
| HMGVPELHKGEIVQAVVEKVLGEGLLRVNLKGMTVEAATSLRLNPGQQLLLRSEGIENGRQVLR | 0.00868 |
| HMTIFGWQTDETGKWYRNADGTFFEAGWKEIDGAKYYFDENGYVKTGWLELDGKDYYFDEEGRYDSSKVR | -0.33 |
| HMEPVQFIQFKIPDGHPWSGQLLREVRLPPGTLVVLLKHDGKNIIPNGETPLLAGDSVILSAASPT | -0.197 |
| HMQETALANFETNEGVQKVKQYVQENVPSLRGSNIVGVWTSYTPEGLTNYRTRFLTQDGQFVEVNLAYQ | 0.036 |
| HMGMVDKSMYSRYDVGDLVKVLRGPLEGSEGHITEINTDTGTVKVETVFFGRSTVVEVDFSEIDK | -0.281 |
| HMQKTVLAASVYERMKERIMDQYYPPGERLNIDALAIDLAVSPTPIREALARLAAERLITFEAYKGYRVSP | -1.87 |
| HMKLSALRDKIKEHLLRQIQNGELQVGKTINLAALSRVTGISVTPIREALTQLEQAQVIQAVPNRGFVVA | 0.00526 |
| HMTTGTVKWFNDAKGFGFITPDDRSVDVFVHYSNIVGQSGRRTLMEGERVEYEAIEGPKGPQATDVARA | -0.304 |
| HMLPDYLIELKKKADSGDAVSQNDIGNIYLYGLPRVNIYPDEKNIGIGIDYLYKAAWQDQVNAMTTI | -0.0456 |
| HMTPQVTVPDVTGQSFASAKQVLESLGLTVKQQGSTGENDKVIGQNPTSGNADKGATITLTTQDS | 0.343 |
| HMVSKQVTVNGIQYYQYTVQKSEGFYAISTKFGVTQDDIILANPSTKEGLRVGQEILIPIKT | -0.186 |
| HMDVQPTTTKTMFYTVQQGETLFSISRKFGISVEEITKKNPLASSGLTVGMELLLPEKKEINSTIQS | 0.265 |
| HMQKEMDIVLQINGKMRSNLKVSSTANDDEIIKTAIESDAYKKFSLGLRIQKTIIVPNRLINIVLEK | -0.985 |
| HMKGVPGIGDYVKLSGGSTVGKVLSISGKKAEVAFGLLRTTTELSKLEKVRKPKELLQSGVSS | 0.269 |
| HMQDREIHIHAGREVLEKELSRLSLHLKNTNLQEYAARFNVKTAEDILAGIGAGDIRPAHVVNLIADKL | 0.0629 |
| HMEDGEVTVPDLRGLTIKEAGTILEKLGLHLSPVGTGLAVRQDVAPGSKVARDTTITVEFEPPDIQVLR | 0.103 |
| HMQSHGSRIWTDITGNFTREASFIELAEGKVTLQLTDGRRTIISFEILSKKDQEYVLDIGDS | -2.11 |
| HMSRESNISTGRQLLEAQLPTWGYKKVEDIPSKQMKTALDAFNYKDVESLLQGLGEGSVALTTALRRLMP | 0.313 |
| HMVLNVMIEEEVHREIIAAISKLPKERRRVVELSMAGFSQEEIAEKMAISVNTVKTIKLRAYRVLRERLKG | -3.18 |
| HMGATFITSSKDNAINIRQAAGTDSKVIETIKNGHILESSEKSGEWYKVTYYDSDIKKTFTGYIHNSQLK | 0.159 |
| HMKYKWLAGQLRRELLENGGKKGYKLPTELELARRYQLSRQTVRRALQLLEEEGLILRRQGSGAYATGKPP | -0.316 |
| HMTETIPVSERLFRYLFEEKGKRVQKIQQTSHARVRMERSPYSVVVSGTKDAVEAAMESLKATEKELLEA | 0.15 |
